Laboratory results from patent publication US20230303690A1 (published 2023).
Residue numbers refer to the chain shown, from its start.

B1: sdAb No. 25-B7 (VHH)
VHH: QLQLVESGGGLVKPGGSLRLSCAASGSIESFSFMGWYRQAPGKQRELVAGFTGAASLSFSTYTDAVKGRFTISRDNAKNSVYLQMNSLRAEDTAVYFCNVDPWSQSWPGRYWGQGTTVTVSS
notes: Humanized sdAb No. 25; not shown: Fc part implied by anti-human IgG Fc detection
B2: combination of sdAbs 25 and 2015 (other)
VHH 1: B1 VHH with K13Q, P14A, S80T, R89K, A90P, T117Q
VHH 2: QLQLVESGGGLAQTGGSLRLSCAAAGFTFDDTATGWFRQAPGKNREGVACISSSDGRIHYIDSAKGRFTISKDNAKKTVYLQMDSLKPEDTAVYYCAAARKGSTDCQGAIWGSWGQGTQVIVSS
B3: combination of sdAbs 25 and 27 (other)
VHH 1: B1 VHH with K13Q, P14A, S80T, R89K, A90P, T117Q
VHH 2: QVQLVESGGGLVQPGGSLRLSCAASGFTLDYYAIGWFRQAPGKEREGVSCIRSSDGSTYYADSVKGRFTISSDNTKNTVYLQMNSLKPEDTAVYYCATDRYSDCRGPYENWGQGTQVTVSS
B4: combination of sdAbs 25 and 18 (other)
VHH 1: B1 VHH with K13Q, P14A, S80T, R89K, A90P, T117Q
VHH 2: QVQLVESGGGLVQPGGSLRLSCAASGFTLNEHAIGWFRRAPGKEREGVSCISSSDGSTYYHDSVKGRFNMSRDDAKNSVYLQMSSLKPEDTAIYYCAAALGRDCQGGQWKTSSWGQGTQVTVSS

How the values were obtained:
[1] = molecular target: T1, human LAG3 expressed on cells (human, UniProt P18627 23-525); test: FACS, 293T-hLAG3 cells
T1 construct: whole, on cells
T1 sequence (looked up): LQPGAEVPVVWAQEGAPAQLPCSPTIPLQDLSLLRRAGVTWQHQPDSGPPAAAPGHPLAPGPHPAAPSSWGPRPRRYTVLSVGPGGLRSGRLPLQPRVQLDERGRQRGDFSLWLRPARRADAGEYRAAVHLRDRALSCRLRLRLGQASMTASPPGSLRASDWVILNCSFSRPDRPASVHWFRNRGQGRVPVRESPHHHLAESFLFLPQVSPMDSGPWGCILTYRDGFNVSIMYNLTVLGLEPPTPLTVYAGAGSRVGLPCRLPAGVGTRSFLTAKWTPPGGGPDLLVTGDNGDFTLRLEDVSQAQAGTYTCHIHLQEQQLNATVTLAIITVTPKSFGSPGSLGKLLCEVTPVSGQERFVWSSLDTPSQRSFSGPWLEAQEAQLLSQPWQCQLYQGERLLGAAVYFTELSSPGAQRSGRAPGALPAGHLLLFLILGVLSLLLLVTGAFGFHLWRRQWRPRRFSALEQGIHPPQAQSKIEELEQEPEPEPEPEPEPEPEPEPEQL
Protocol: 5) The prepared antibody samples were added to the 96-well plate according to the platemap, the cells were resuspended and incubate at 4° C. for 1 hour.
7) 3% BSA/1xPBS was used to dilute Goat polyclonal Secondary Antibody to Human IgG-Fc (DyLight® 650) to the desired concentration (1:200), in which the cells were resuspended and incubated at 4° C. for 1 hour.
9) The cells were resuspended in 200 µl of 3% BSA/1xPBS, and performed flow cytometric testing by Shsti Biotech Inc.

[2] = molecular target: T2, LAG3 Protein, Human, Recombinant (His Tag) (Sino Biological Catalog No. 16498-H08H) (human, UniProt P18627 23-450); test: ELISA, coated hLAG3-His
T2 construct: Bought protein; also called hLAG3-His; LAG3-His; not shown: His tag
T2 sequence (looked up): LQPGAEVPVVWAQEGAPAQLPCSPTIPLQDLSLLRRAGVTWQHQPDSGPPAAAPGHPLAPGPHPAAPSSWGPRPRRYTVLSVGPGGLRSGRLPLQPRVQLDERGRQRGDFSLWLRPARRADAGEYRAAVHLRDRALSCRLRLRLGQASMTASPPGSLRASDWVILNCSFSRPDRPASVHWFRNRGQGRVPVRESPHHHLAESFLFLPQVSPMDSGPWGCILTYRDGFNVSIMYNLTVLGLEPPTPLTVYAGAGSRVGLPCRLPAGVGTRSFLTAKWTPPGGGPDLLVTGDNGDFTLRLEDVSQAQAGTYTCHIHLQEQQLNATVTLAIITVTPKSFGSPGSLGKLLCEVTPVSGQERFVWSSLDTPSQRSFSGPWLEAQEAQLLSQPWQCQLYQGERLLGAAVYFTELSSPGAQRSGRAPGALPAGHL
Protocol: Plates were coated with 100 µL per well of Coating Solution, and then covered, and incubated overnight (12-18 hours) at 2-8° C. The wells were aspirated and washed 1 time with >200 µL of Wash buffer per well, inverted and tapped on absorbent paper to remove excess liquid. The plates were blocked with 200 µL per well with Blocking buffer (1×PBS+4% milk) for 1 hour at room temperature, aspirated, inverted, and tapped on absorbent paper to remove excess liquid. Standards and sample dilutions were prepared in Blocking buffer. 100 µL of standards (in duplicate) and samples were pipetted into designated wells. After incubation for 1 hour at room temperature with gentle continual shaking (~500 rpm), the wells were aspirate and washed 3 times with >200 µL of Wash buffer per well, inverted and tapped on absorbent paper to remove excess liquid.
The primary antibody solution was diluted with Blocking buffer. See Table 14 for recommended primary antibody dilution. 100 µL of the primary antibody solution was added into each well and incubated for 2 hours at room temperature with gentle continual shaking (~500 rpm). The wells were aspirated and washed 3 times with >200 µL of Wash buffer per well, inverted and tapped on absorbent paper to remove excess liquid. The working solution of secondary antibody was made with Blocking buffer by diluting the secondary antibody by 2,500 times. 100 µL of secondary antibody working solution was added into each well and incubated for 30 minutes at room temperature. The wells were aspirated and washed 5 times with >200 µL of Wash buffer per well, inverted and tapped on absorbent paper to remove excess liquid. 100 µL of TMB substrate solution (Biopanda, TMB-S-004) was added to each well and incubated for 30 minutes at room temperature. 100 µL of Stop solution (Solarbio, C1058) was added to each well. Absorbance at 450 nm was measured within 30 minutes of adding Stop solution. Results were calculated using a log-log or 4-parameter curve fit.

[3] = molecular target: T1, human LAG3 expressed on cells; test: cell-based or functional assay

Row | IL-2, % of BMS, at 0.005080526 ug/mL [3] [%] | IL-2, % of BMS, at 0.015241579 ug/mL [3] [%] | IL-2, % of BMS, at 0.045724737 ug/mL [3] [%] | IL-2, % of BMS, at 0.137174211 ug/mL [3] [%] | IL-2, % of BMS, at 0.411522634 ug/mL [3] [%] | IL-2, % of BMS, at 1.234567901 ug/mL [3] [%] | IL-2, % of BMS, at 3.703703704 ug/mL [3] [%] | IL-2, % of BMS, at 11.11111111 ug/mL [3] [%] | IL-2, % of BMS, at 33.33333333 ug/mL [3] [%] | IL-2, % of BMS, at 100 ug/mL [3] [%] | other results | Binder
1 |  |  |  |  |  |  |  |  |  |  | EC50 [1]: 0.6 nM; FACS signal at 0.061 nM [1]: 191; FACS signal at 0.1829 nM [1]: 487; FACS signal at 0.5487 nM [1]: 1110; FACS signal at 1.6461 nM [1]: 1690; FACS signal at 4.9383 nM [1]: 2030; FACS signal at 14.815 nM [1]: 2210; FACS signal at 44.445 nM [1]: 2480; FACS signal at 133.335 nM [1]: 2380; EC50 [2]: 2 nM; OD450 at 0.061 nM [2]: 0.038; OD450 at 0.1829 nM [2]: 0.057; OD450 at 0.5487 nM [2]: 0.132; OD450 at 1.6461 nM [2]: 0.648; OD450 at 4.9383 nM [2]: 1.25; OD450 at 14.815 nM [2]: 1.41; OD450 at 44.445 nM [2]: 1.33; OD450 at 133.335 nM [2]: 1.66 | B1
2 | 0.0473 | 0.883 | -2.03 | 0.439 | 3.96 | 18.9 | 43.6 | 52.5 | 50.7 | 62.2 |  | B2
3 | 0 | 4.21 | -1.96 | 10.8 | 39 | 51.2 | 62.3 | 69.3 | 79.8 | 83 |  | B3
4 | 0 | 1.97 | 13.2 | 14.6 | 32.6 | 45.4 | 52.9 | 52.5 | 65 | 66.5 |  | B4
